We go through four molecules from article PMC3035870 (Molecular microbiology, 2009).

Numbering of substitutions follows the chain as printed. Numbers in names are those of the source. Read-outs that look alike come from different tables or passages of the source.

First the molecules themselves.
B1: Bacillus subtilis τ subunit of the clamp-loader (DnaX) (natural protein, B. subtilis (strain 168), UniProt P09122 1-563, looked up)
chain: MSYQALYRVFRPQRFEDVVGQEHITKTLQNALLQKKFSHAYLFSGPRGTGKTSAAKIFAKAVNCEHAPVDEPCNECAACKGITNGSISDVIEIDAASNNGVDEIRDIRDKVKFAPSAVTYKVYIIDEVHMLSIGAFNALLKTLEEPPEHCIFILATTEPHKIPLTIISRCQRFDFKRITSQAIVGRMNKIVDAEQLQVEEGSLEIIASAADGGMRDALSLLDQAISFSGDILKVEDALLITGAVSQLYIGKLAKSLHDKNVSDALETLNELLQQGKDPAKLIEDMIFYFRDMLLYKTAPGLEGVLEKVKVDETFRELSEQIPAQALYEMIDILNKSHQEMKWTNHPRIFFEVAVVKICQTSHQSAADLPEVDMLMKKIQQLEQEVERLKTTGIKAAAESPKKEAPRVPKGGKSNYKAPVGRIHEILKEATRPDLDLLRNSWGKLLAHLKQQNKVSHAALLNDSEPVAAGSAAFVLKFKYEIHCKMVAEDNNGVRTNLEQILESMLGKRMDLIGVPEAQWGKIREEFLEDHQQENEGSNEPAEEDPLIAEAKKLVGADLIEIKD
B2: Geobacillus stearothermophilus replicative helicase DnaB (enzyme, G. stearothermophilus (strain NCA1503), UniProt Q9X4C9 1-454, looked up)
chain: MSELFSERIPPQSIEAEQAVLGAVFLDPAALVPASEILIPEDFYRAAHQKIFHAMLRVADRGEPVDLVTVTAELAASEQLEEIGGVSYLSELADAVPTAANVEYYARIVEEKSVLRRLIRTATSIAQDGYTREDEIDVLLDEADRKIMEVSQRKHSGAFKNIKDILVQTYDNIEMLHNRDGEITGIPTGFTELDRMTSGFQRSDLIIVAARPSVGKTAFALNIAQNVATKTNENVAIFSLEMSAQQLVMRMLCAEGNINAQNLRTGKLTPEDWGKLTMAMGSLSNAGIYIDDTPSIRVSDIRAKCRRLKQESGLGMIVIDYLQLIQGSGRSKENRQQEVSEISRSLKALARELEVPVIALSQLSRSVEQRQDKRPMMSDIRESGSIEQDADIVAFLYRDDYYNKDSENKNIIEIIIAKQRNGPVGTVQLAFIKEYNKFVNLERRFDEAQIPPGA
B3: Bacillus subtilis τ A550V mutant (natural protein, B. subtilis (strain 168), UniProt P09122 1-563, looked up)
chain: B1 chain with A550V
B4: Δτ18, B. subtilis τ lacking the last 18 C-terminal residues (domain or fragment, B. subtilis (strain 168), UniProt P09122 1-545, looked up)
chain: MSYQALYRVFRPQRFEDVVGQEHITKTLQNALLQKKFSHAYLFSGPRGTGKTSAAKIFAKAVNCEHAPVDEPCNECAACKGITNGSISDVIEIDAASNNGVDEIRDIRDKVKFAPSAVTYKVYIIDEVHMLSIGAFNALLKTLEEPPEHCIFILATTEPHKIPLTIISRCQRFDFKRITSQAIVGRMNKIVDAEQLQVEEGSLEIIASAADGGMRDALSLLDQAISFSGDILKVEDALLITGAVSQLYIGKLAKSLHDKNVSDALETLNELLQQGKDPAKLIEDMIFYFRDMLLYKTAPGLEGVLEKVKVDETFRELSEQIPAQALYEMIDILNKSHQEMKWTNHPRIFFEVAVVKICQTSHQSAADLPEVDMLMKKIQQLEQEVERLKTTGIKAAAESPKKEAPRVPKGGKSNYKAPVGRIHEILKEATRPDLDLLRNSWGKLLAHLKQQNKVSHAALLNDSEPVAAGSAAFVLKFKYEIHCKMVAEDNNGVRTNLEQILESMLGKRMDLIGVPEAQWGKIREEFLEDHQQENEGSNEPAEEDP

Common to all, as to assay: SEC
(In general: Size exclusion chromatography separates by hydrodynamic size, large species first.)

Data set [1] deals with the molecule itself.
For data set [2], the target named is B3.
Data set [3] concerns the target B4.
Data set [4] concerns the molecule itself. This is another data set of the same source.

As to B1, the binding result in the data set “SEC [1]” is given as “binds”.

With B2, the binding result (in data set [2]; in data set [3]; in “SEC [1]”) was “binds” each time.

With B3, the binding result in “SEC [4]” is reported as “binds”.

Turning to B4, in the data set “SEC [1]”, the binding result is on record as “binds”.
